Experimental data as given in IntAct's records for PubMed 34400613.

Experiments:
G3BP1 [1] = target: G3BP1 (UniProt Q13283)
G3BP1 [2] = target: G3BP1 (UniProt Q13283); remark: listed apart in the source

Chain of UniProt Q13283 (Q13283 whole entry, looked up): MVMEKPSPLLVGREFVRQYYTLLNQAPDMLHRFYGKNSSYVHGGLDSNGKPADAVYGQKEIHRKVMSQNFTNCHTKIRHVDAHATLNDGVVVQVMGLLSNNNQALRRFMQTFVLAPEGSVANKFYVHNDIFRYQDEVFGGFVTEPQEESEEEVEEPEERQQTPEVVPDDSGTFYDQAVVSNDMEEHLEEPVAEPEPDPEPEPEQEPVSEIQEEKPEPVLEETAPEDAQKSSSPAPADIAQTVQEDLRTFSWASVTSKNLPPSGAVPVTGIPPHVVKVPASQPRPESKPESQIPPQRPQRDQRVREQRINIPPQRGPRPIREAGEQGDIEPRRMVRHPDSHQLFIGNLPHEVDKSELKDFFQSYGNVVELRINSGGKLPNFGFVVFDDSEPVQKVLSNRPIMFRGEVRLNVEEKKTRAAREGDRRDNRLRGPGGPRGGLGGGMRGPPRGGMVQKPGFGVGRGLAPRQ

Substance: Nucleoprotein (SARS-CoV-2) (from UniProt P0DTC9) G18A
- effect of a mutation on the interaction (G3BP1 [1]): decreasing interaction strength

Substance: Nucleoprotein (SARS-CoV-2) (from UniProt P0DTC9) T16A
- effect of a mutation on the interaction (G3BP1 [2]): decreasing interaction strength

Substance: Nucleoprotein (SARS-CoV-2) (from UniProt P0DTC9) I15A;T16A;F17A;G18A
- effect of a mutation on the interaction (G3BP1 [1]): disrupting interaction strength

Substance: Nucleoprotein (SARS-CoV-2) (from UniProt P0DTC9) I15A
- effect of a mutation on the interaction (G3BP1 [2]): decreasing interaction strength

Substance: Nucleoprotein (SARS-CoV-2) (from UniProt P0DTC9) G18E
- effect of a mutation on the interaction (G3BP1 [2]): decreasing interaction strength
